{
  "source": "the nanobody polyreactivity screen of Harvey et al. (2022)",
  "data": [
    {"experiment": "yeast display, Sf9 membrane polyspecificity reagent, FACS + sequencing; frameworks hold sequencing errors", "summary_of_the_method": "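Galactose induction of a Saccharomyces cerevisiae BJ5465 synthetic nanobody display library ran 36–48 hours. The cells were then stained for 1 hour at 4 °C with 10% biotinylated, detergent-solubilized Sf9 membrane reagent, pulled down on streptavidin microbeads and FACS-sorted into low and high (top ~1%) gates on expression and reagent-binding fluorescence. Labels for polyreactivity follow the gate of origin.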", "values": [
      {"sequence": "QVQLVESGGGLVQAGGSLRLSCAASGFTFANNAMGWYRQAPGKERELVAAISRSGGSTYYADSVKGRFTISRDNAKNTVYLQMNSLKPEDTAVYYCAKAVFYGPCERNYGLDYWGQGTQVTVSS", "polyreactivity (PSR sort gate)": "high polyreactivity"},
      {"sequence": "QVQLVESGGGLVQAGGSLRLSCAASGFTFANYAMGWYRQAPGKERELVAAITRTAGSTYYADSVKGRFTISRDNAKNTVYLQMNSLKPEDTAVYYCAVEGIYRWYDYSWYYTSTYDYWGQGTQVTVSS", "polyreactivity (PSR sort gate)": "low polyreactivity"},
      {"sequence": "QVQLVESGGGLVQAGGSLRLSCAASGFTFAPYVMGWYRQAPGKETELVAAIPTRGGSTYYADSVKGRFTISRDNAKNTVYLQMNSLKPEDTAVYYFAAQRRYDTADHGYWGQGTQVTVSS", "polyreactivity (PSR sort gate)": "high polyreactivity"},
      {"sequence": "QVQLVESGGGLVQAGGSLRLSCAASGFTFASNAMGWYRQAPGKERELVAGISRTGTTTYYADSVKGRFTISRDNAKNTVYLQMNSLKPEDTAVYYCNKAFSHQIYATGMGYWGQGTQVTVSS", "polyreactivity (PSR sort gate)": "high polyreactivity"},
      {"sequence": "QVQLVESGGGLVQAGGSLRLSCAASGFTFASNCMGWYRQAPGKERELVAVIDWSDDSTYYADSVKGRFTISRDNAKNTVYLQMNSLKPEDTAVYYCKADVWWGGYDYWGQGTQVNVSS", "polyreactivity (PSR sort gate)": "low polyreactivity"},
      {"sequence": "QVQLVESGGGLVQAGGSLRLSCAASGFTFAVYAMGWYRQAPGKERELVAAINRGGGSTYADSVKGRFTISRDTAKNTVYLQMNSLKPEDTAVYYCAARVYGTRKINYSWGQGTQVTVSS", "polyreactivity (PSR sort gate)": "high polyreactivity"},
      {"sequence": "QVQLVESGGGLVQAGGSLRLSCAASGFTFAVYTMGRYIQGPGKERELVAAITASGGSTHYADSVKGRFTISRDNAKNTVYIQMNSLKPEDTAVYYCAARPRLYQYYYWGQGTQVTVSS", "polyreactivity (PSR sort gate)": "high polyreactivity"},
      {"sequence": "QVQLVESGGGLVQAGGSLRLSCAASGFTFAVYTMGWYRQAPGKERELVAAITASGGSMHYADSVKGRFTISRDNVKNTVYLQMNSLKPEDTAVYYCAARPRLYQYYYWGQGTQVTVSS", "polyreactivity (PSR sort gate)": "high polyreactivity"},
      {"sequence": "QVQLVESGGGLVQAGGSLRLSCAASGFTFAYNAMGWYRQAPGKERELVAAISRSGARTYYADSVKGRFTISRDNAKNTVYLQMNSLKPEDTAVYYCNARDYTLYGYWGQGTQVTVSS", "polyreactivity (PSR sort gate)": "high polyreactivity"},
      {"sequence": "QVQLVESGGGLVQAGGSLRLSCAASGFTFAYNAMGWYRQAPGKERELVATISWSGGSTYYADSVKGRFTISRDNAKNTVYLQMNSLKPEDTAVYYCATTIFYTYYGLYDYWGQGTQVTVSS", "polyreactivity (PSR sort gate)": "high polyreactivity"},
      {"sequence": "QVQLVESGGGLVQAGGSLRLSCAASGFTFAYYAMGWYRQAPGKEREFVAVITWSGGDTYYADSVKGRFTISRDNAKNTVYLQMNSLKPEDTAVSYCAATYWGTRRIYAYGYWGQGTQVTVSS", "polyreactivity (PSR sort gate)": "high polyreactivity"},
      {"sequence": "QVQLVESGGGLVQAGGSLRLSCAASGFTFAYYAMGWYRQAPGKERELVAAISSRGGSTYYADSVKGRFTISRDNAKNTVYLQMNSLKPEDTAVYYCAAEFGLWPYEYGYWGQGTQVTVSS", "polyreactivity (PSR sort gate)": "high polyreactivity"},
      {"sequence": "QVQLVESGGGLVQAGGSLRLSCAASGFTFAYYDMGWYRQAPGKERELVAAISQSGGSTYYADSVKGRFTISRDNAKNTVYLQMKSLKPEDTAVYYCNAYAYTQSYEYDYWGQGTQVTVSS", "polyreactivity (PSR sort gate)": "high polyreactivity"},
      {"sequence": "QVQLVESGGGLVQAGGSLRLSCAASGFTFAYYTMGWYRQAPGKERELVAAINWSGGSTYYADSVKGRFTISRDNAKNTVYLQMNSLKPEDTAVYYCAAKSYWWATYEYWGQGTQVTVSS", "polyreactivity (PSR sort gate)": "high polyreactivity"},
      {"sequence": "QVQLVESGGGLVQAGGSLRLSCAASGFTFAYYTMGWYRQAPGKERELVVVINRSGSTNYADSVKGRFTISRDNAKNTVYLQMNSLKPEDTAVYYCATGVALRYGYWGQGTQVTVSS", "polyreactivity (PSR sort gate)": "low polyreactivity"},
      {"sequence": "QVQLVESGGGLVQAGGSLRLSCAASGFTFDAYTMGWYSQAPGKERELVAAITWSGGRTYYADSVKGRCTISRDNAKTTVYLQLNSLKPEDTALYNCAADSPTSLYEYWGQGTQVTVSS", "polyreactivity (PSR sort gate)": "high polyreactivity"},
      {"sequence": "QVQLVESGGGLVQAGGSLRLSCAASGFTFDENAMGWYRQAPGINYSGASTYYADSVKGRFTISRDNAKNTVYLQMNSLKPDDTAVYYCAAEVVAQMNYWGQGTQVTVSS", "polyreactivity (PSR sort gate)": "low polyreactivity"},
      {"sequence": "QVQLVESGGGLVQAGGSLRLSCAASGFTFDGYGMGWYRQAPGKERELVAVITSGGSTKYADSVKGRFTISRDNAKNTVYLQMNSLNPEDTAVYYCNVVGGRYLYSAYDYWGQGTQVTVSS", "polyreactivity (PSR sort gate)": "low polyreactivity"},
      {"sequence": "QVQLVESGGGLVQAGGSLRLSCAASGFTFDHNAMGWYRQAPGKERELVARITGTGDSTYYADSVKGRFTISRDNAKKTVYLQMNSLNPEDSADYYCNADRRYDFYDGYGYWGQGTQVTVSS", "polyreactivity (PSR sort gate)": "low polyreactivity"},
      {"sequence": "QVQLVESGGGLVQAGGSLRLSCAASGFTFDIYGMGWYRQAPGKERELVASITSRSARTNYADSVKGRFRISRDNAMNTVYLQMNSLKPEDSAVYYCAADPYTGYTYYWGQVTQVTVSS", "polyreactivity (PSR sort gate)": "high polyreactivity"},
      {"sequence": "QVQLVESGGGLVQAGGSLRLSCAASGFTFDKYAMGWYRQAPGKESELVAAISRGGGTKYADSVKGRFTISRDNAKNTVYLQMNSLKPEDTAVYYCVAKFRPDLSRGAYEYWGQGTQVTVSS", "polyreactivity (PSR sort gate)": "high polyreactivity"},
      {"sequence": "QVQLVESGGGLVQAGGSLRLSCAASGFTFDLYARGWYRQAPGKERELVAAISSSCGSTYYADSVKGRFTISRDNAKNTVYLQMNSLKPEDTAVYDCARRYLYSSRLVTKYGYGMDYWGQGTQVTVSS", "polyreactivity (PSR sort gate)": "high polyreactivity"},
      {"sequence": "QVQLVESGGGLVQAGGSLRLSCAASGFTFDPYAMGWYREAPGKERELVAAISFSGGSTSYADSVKGRFTISRDNAKNSVYFQMNSLKPEDTAVYYCAAYSWLYEGYEYWGQGTQVTVSS", "polyreactivity (PSR sort gate)": "high polyreactivity"},
      {"sequence": "QVQLVESGGGLVQAGGSLRLSCAASGFTFDPYAMGWYRQAPGKERELVAAISFSGGSTSYADSVKGRFTISRDNAKNTVYLQMNSLKPEDTAVYYCAAYSWLYEGYEYWGLGTQVTVSS", "polyreactivity (PSR sort gate)": "high polyreactivity"},
      {"sequence": "QVQLVESGGGLVQAGGSLRLSCAASGFTFDPYAMGWYRQAPGKERELVAAISISGGRTYYADSVKGRFTISRDNAKNTVYLQMNSLKPEDTAVYYCAVAQSHYFGGYGYWGQGTQVTVSS", "polyreactivity (PSR sort gate)": "low polyreactivity"},
      {"sequence": "QVQLVESGGGLVQAGGSLRLSCAASGFTFDRYAMGWYRQAPGKERELVAAISRSGASTYYADSVKGRFTISRDNAKNTVYLQMNSLKPEDTAVDDCAAKQRTKGDYWGQGTQVTVSS", "polyreactivity (PSR sort gate)": "high polyreactivity"},
      {"sequence": "QVQLVESGGGLVQAGGSLRLSCAASGFTFDRYAMGWYRQAPGKERELVAAISVSGGRTYYADSVKGRFTISRDNAKNTVYLQMNSLKPEDTAVYYCAARDHSRSRFGYDYLGQGTQVTVSS", "polyreactivity (PSR sort gate)": "high polyreactivity"},
      {"sequence": "QVQLVESGGGLVQAGGSLRLSCAASGFTFDRYAMGWYRQAPGKERELVAAITSRGGRTYYADSVKGRFTISRDNAKNTVYLQMNSLKPEDTAVYYCNAVYSQSGYFYRFDYWGQVTQVTVSS", "polyreactivity (PSR sort gate)": "high polyreactivity"},
      {"sequence": "QVQLVESGGGLVQAGGSLRLSCAASGFTFDSNAMGWYRQAPGKERELVAAISKRGGSTYYADSVKGRFTISRDNAKNTVYLQMNRLKPEDTAVYYCAADNYNSGGTRHMYYWGQGSQVTVSS", "polyreactivity (PSR sort gate)": "high polyreactivity"},
      {"sequence": "QVQLVESGGGLVQAGGSLRLSCAASGFTFDSNAMGWYRQAPGKERELVAAISSSGGSTYYADSVKGRFTISRDNAKNTVYLQMNSLKPEDTAVYYCNARRRTVPYRYDYWGQGTQVTVSS", "polyreactivity (PSR sort gate)": "high polyreactivity"},
      {"sequence": "QVQLVESGGGLVQAGGSLRLSCAASGFTFDSYAMGWYRQAPGKERELVAAITSGDSTHYADSVKGRFTISRDNAKNTVYLQMNSLKPEDTAVYYCAASGFPYPYDYWGQGTQVTVSS", "polyreactivity (PSR sort gate)": "low polyreactivity"},
      {"sequence": "QVQLVESGGGLVQAGGSLRLSCAASGFTFDSYAMGWYRQAPGQERELVPAISSSSSTNYADSVKGRFTISRDNAKNTVYLPLNSLKPEDTAVYYCNADSPEGYRLLDYWGQGTQVTVSS", "polyreactivity (PSR sort gate)": "low polyreactivity"},
      {"sequence": "QVQLVESGGGLVQAGGSLRLSCAASGFTFDTNVRGWYRQAPGKERELVAAITGPGGSTYYADSVKGRFTISRDNAKNTVYLQMNSLNPEDTAVYYCNRVYYRRRLYDYWGQGTQVTVSS", "polyreactivity (PSR sort gate)": "high polyreactivity"},
      {"sequence": "QVQLVESGGGLVQAGGSLRLSCAASGFTFDVYAMGWYRQAPGKERELVAAIDSGGSTNYADSVKGRFTISRDNAKNTVYLQMNSLKPEDTAVYYCAAPFVGSVVIRRWDEYDYWGQGTQVTVSS", "polyreactivity (PSR sort gate)": "low polyreactivity"},
      {"sequence": "QVQLVESGGGLVQAGGSLRLSCAASGFTFDVYTMGWYRQAPGKEREFVAAISGSGGSTYYADSVKGRFTISRDNAKNTVYLQMNSLKPEDTAVYYCNAGLSRVSHRHRSHSLQGYDYWGQGTQVTVSS", "polyreactivity (PSR sort gate)": "low polyreactivity"},
      {"sequence": "QVQLVESGGGLVQAGGSLRLSCAASGFTFDVYTMGWYRQAPGKERELVASITYSGGDTYADSVKGRFTISRDNAKNTVYLQMNRLKPEDTAVYYCNAVVYYYLDEYWGQGTQVTVSS", "polyreactivity (PSR sort gate)": "high polyreactivity"},
      {"sequence": "QVQLVESGGGLVQAGGSLRLSCAASGFTFDWNAMGWYRQAPGKERELVAAISSSTGRTYYADSVKGRFTISRDNAKNTVYLQMNSLKPEDTAVYYCAASLGGYGERYYYWGQGTQVTVSS", "polyreactivity (PSR sort gate)": "high polyreactivity"},
      {"sequence": "QVQLVESGGGLVQAGGSLRLSCAASGFTFDWYAMGWYRPAPGKERELVAAISSGGNTKYADSVKGRFTISRDNAKNTVYLQMNSLKPEDTAVYYCAARLYYSLSYYYWGQGTQVTVAS", "polyreactivity (PSR sort gate)": "high polyreactivity"},
      {"sequence": "QVQLVESGGGLVQAGGSLRLSCAASGFTFDWYAMGWYRQAPGKERELVAAISSGGNTKYADSVKGRFTISRDNAKNTVYLQMNSLKPEDTAVYYCAARLYYSLSYYYWGQGTQVTVSS", "polyreactivity (PSR sort gate)": "high polyreactivity"},
      {"sequence": "QVQLVESGGGLVQAGGSLRLSCAASGFTFDYYAMGRDIPAPGKERELVAAISRAGSTNYADSVKGRFTISRDNAKNTVYLQMNSLKPEDTAVYYCNKGYHSWSRLSQFGWSYDYWGQGTQVTVSS", "polyreactivity (PSR sort gate)": "high polyreactivity"},
      {"sequence": "QVQLVESGGGLVQAGGSLRLSCAASGFTFDYYAMGWYRQAPGKERELVAAINYSGGSTYYADSVKGRFTISRDNAKNTVYLQMNSLKPEDTAVYYCNAVGYSVFRRYNYWGQGTQVTVSS", "polyreactivity (PSR sort gate)": "high polyreactivity"},
      {"sequence": "QVQLVESGGGLVQAGGSLRLSCAASGFTFDYYAMGWYRQAPGKERELVAAISSSGGSTYYADSVKGRFTISRDNAKNTVYLQMNSLKPEDTAVYYCATGHSKKYDYWGQGTQVTVSS", "polyreactivity (PSR sort gate)": "high polyreactivity"},
      {"sequence": "QVQLVESGGGLVQAGGSLRLSCAASGFTFDYYAMGWYRQAPGKERELVAAITRSGTRTYYADSVKGRFTISRDNAKNTVYLQMNSLKPEDTAVYYCNVEYPKRANLSDYWGQGTQVTVSS", "polyreactivity (PSR sort gate)": "high polyreactivity"}
    ]}
  ]
}
